In the data set the test system is Escherichia coli TOP10. Nature of the data set: shrunken log2 fold change of peptide-encoding DNA abundance (4.5 h post-induction vs induction); higher = less antimicrobial activity (less host growth inhibition). As to conditions: time post-induction: 4.5 h; library: site-saturation at positions 5, 18, 19, 20.
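Further: peptides expressed intracellularly from a pBAD plasmid library in pooled LB shake-flask culture, induced with 0.3% L-arabinose, DNA abundance read by NGS, three biological replicates, DESeq2 with apeglm shrinkage.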

Consider RRIRPRPPRLPRPRPRPHETPRP, for which the “shrunken log2 fold change” value is -0.164.
The result for RRIRNRPPRLPRPRPRPNVDPRP reads 0.112.
RRIRARPPRLPRPRPRPHIPPRP: the “shrunken log2 fold change” value is -0.671.
As to RRIRSRPPRLPRPRPRPFYCPRP, the “shrunken log2 fold change” value is -0.14.
The result for RRIRCRPPRLPRPRPRPSAQPRP reads 0.336.
As to RRIRERPPRLPRPRPRPPVQPRP, the “shrunken log2 fold change” value was -0.122.
The result for RRIRARPPRLPRPRPRPSNDPRP reads -0.213.
The result for RRIRARPPRLPRPRPRPWAKPRP reads 0.334.
With RRIRCRPPRLPRPRPRPDVRPRP, the “shrunken log2 fold change” value was -0.0317.
With RRIRSRPPRLPRPRPRPWKRPRP the figure was -0.000813; with RRIRWRPPRLPRPRPRPNSCPRP, 0.0578; with RRIRNRPPRLPRPRPRPMNGPRP, 0.015.
As to RRIRKRPPRLPRPRPRPHESPRP, the “shrunken log2 fold change” value came to 0.23.
The result for RRIRNRPPRLPRPRPRPGNPPRP reads 0.0273; that for RRIRARPPRLPRPRPRPVFDPRP, 0.321; that for RRIRKRPPRLPRPRPRPFCDPRP, 0.144.
With RRIRHRPPRLPRPRPRPFVCPRP, the “shrunken log2 fold change” value was -0.453.
With RRIRNRPPRLPRPRPRPIEDPRP the figure was -0.0858; with RRIRMRPPRLPRPRPRPVNHPRP, -0.327.
With RRIRMRPPRLPRPRPRPITFPRP the figure was 0.0589; with RRIRARPPRLPRPRPRPYIWPRP, -0.543; with RRIRKRPPRLPRPRPRPWTCPRP, -0.0961.
The result for RRIRHRPPRLPRPRPRPSVKPRP reads -0.364; that for RRIRLRPPRLPRPRPRPMFKPRP, -0.245.
Regarding RRIRKRPPRLPRPRPRPVAFPRP, the “shrunken log2 fold change” value was determined as 0.238.
With RRIRWRPPRLPRPRPRPISWPRP the figure was 0.0165.
Turning to RRIRGRPPRLPRPRPRPRRMPRP, the “shrunken log2 fold change” value is 0.706.
With RRIRMRPPRLPRPRPRPTLIPRP the figure was 0.00162; with RRIRRRPPRLPRPRPRPPYNPRP, -0.019.
RRIRPRPPRLPRPRPRPEGRPRP: the “shrunken log2 fold change” value was found to be 0.545.
As for RRIRHRPPRLPRPRPRPGFFPRP, the “shrunken log2 fold change” value worked out at 0.0196.
For RRIRYRPPRLPRPRPRPPAWPRP, the “shrunken log2 fold change” value was -0.0773.
With RRIRRRPPRLPRPRPRPHNEPRP the figure was -0.0783; with RRIRARPPRLPRPRPRPKANPRP, 0.297.
The result for RRIRSRPPRLPRPRPRPEKYPRP reads -1.28; that for RRIRIRPPRLPRPRPRPREEPRP, 0.0171.
With RRIRERPPRLPRPRPRPTQRPRP the figure was 0.0475.
Take RRIRQRPPRLPRPRPRPYNFPRP: the “shrunken log2 fold change” value is -0.0266.
RRIRRRPPRLPRPRPRPIPAPRP: the “shrunken log2 fold change” value was found to be 0.804.
As for RRIRTRPPRLPRPRPRPFVYPRP, the “shrunken log2 fold change” value is -0.639.
With RRIRQRPPRLPRPRPRPHKTPRP the figure was -0.146; with RRIRRRPPRLPRPRPRPFQYPRP, -0.0414.
With RRIRGRPPRLPRPRPRPCPEPRP the figure was -0.0446; with RRIRPRPPRLPRPRPRPPKGPRP, 0.308; with RRIRCRPPRLPRPRPRPLNKPRP, -0.695.
With RRIRQRPPRLPRPRPRPPAPPRP the figure was 0.399.
For RRIRNRPPRLPRPRPRPSWQPRP, the “shrunken log2 fold change” value is -0.0148.
On to RRIRHRPPRLPRPRPRPQMEPRP, for which the “shrunken log2 fold change” value was -0.00192.
In the case of RRIRDRPPRLPRPRPRPDPCPRP, the “shrunken log2 fold change” value was -0.0187.
The result for RRIRLRPPRLPRPRPRPSHLPRP reads -0.491.
With RRIRFRPPRLPRPRPRPQTFPRP the figure was -0.127; with RRIRPRPPRLPRPRPRPQTDPRP, -0.0886.
With RRIRRRPPRLPRPRPRPAKGPRP the figure was -0.0594.
RRIRCRPPRLPRPRPRPYTGPRP: the “shrunken log2 fold change” value is -0.554.
With RRIRRRPPRLPRPRPRPDTTPRP the figure was 0.192; with RRIRDRPPRLPRPRPRPGYKPRP, -0.121.
On to RRIRGRPPRLPRPRPRPEMHPRP, for which the “shrunken log2 fold change” value turned out to be 0.242.
The result for RRIRKRPPRLPRPRPRPGEPPRP reads 0.305.
In the case of RRIRDRPPRLPRPRPRPTTIPRP, the “shrunken log2 fold change” value is -0.121.
With RRIRYRPPRLPRPRPRPSMRPRP the figure was -0.634; with RRIRERPPRLPRPRPRPDIDPRP, -0.191; with RRIRGRPPRLPRPRPRPGGHPRP, 0.779.
With RRIRMRPPRLPRPRPRPTVRPRP the figure was 0.216.
As for RRIRWRPPRLPRPRPRPLGGPRP, the “shrunken log2 fold change” value was 0.253.
Consider RRIRLRPPRLPRPRPRPSKNPRP, for which the “shrunken log2 fold change” value is -0.296.
The result for RRIRVRPPRLPRPRPRPFWAPRP reads 0.182; that for RRIRWRPPRLPRPRPRPNPQPRP, -0.0303; that for RRIRQRPPRLPRPRPRPGDFPRP, -0.179.
As to RRIRTRPPRLPRPRPRPMAMPRP, the “shrunken log2 fold change” value was 0.0345.
RRIRTRPPRLPRPRPRPSWTPRP: the “shrunken log2 fold change” value was -0.468.
Turning to RRIRTRPPRLPRPRPRPNSKPRP, the “shrunken log2 fold change” value is -0.848.
In the case of RRIRPRPPRLPRPRPRPTVGPRP, the “shrunken log2 fold change” value amounted to 0.555.
With RRIRDRPPRLPRPRPRPPIFPRP the figure was -0.129; with RRIRFRPPRLPRPRPRPSCQPRP, -0.245.
Consider RRIRCRPPRLPRPRPRPWLCPRP, for which the “shrunken log2 fold change” value is -0.182.
For RRIRPRPPRLPRPRPRPQAIPRP, the “shrunken log2 fold change” value worked out at 0.186.
With RRIRFRPPRLPRPRPRPKCNPRP the figure was -0.238; with RRIRFRPPRLPRPRPRPEGMPRP, -0.0976; with RRIRRRPPRLPRPRPRPCHPPRP, -0.0611.
With RRIRQRPPRLPRPRPRPQSDPRP the figure was -0.00542; with RRIRHRPPRLPRPRPRPNCPPRP, -0.152.
In the case of RRIRQRPPRLPRPRPRPILTPRP, the “shrunken log2 fold change” value is -0.955.
In the case of RRIRCRPPRLPRPRPRPYQLPRP, the “shrunken log2 fold change” value was -0.119.
The result for RRIRGRPPRLPRPRPRPFRPPRP reads 0.021; that for RRIRFRPPRLPRPRPRPHSWPRP, -0.0147.
In the case of RRIRIRPPRLPRPRPRPFWPPRP, the “shrunken log2 fold change” value is -0.056.
Regarding RRIRVRPPRLPRPRPRPFGPPRP, the “shrunken log2 fold change” value is -0.543.
The result for RRIRSRPPRLPRPRPRPNASPRP reads 0.233; that for RRIRFRPPRLPRPRPRPSYFPRP, -0.479.
Consider RRIRFRPPRLPRPRPRPMKKPRP, for which the “shrunken log2 fold change” value is -0.0398.
RRIRPRPPRLPRPRPRPANFPRP: the “shrunken log2 fold change” value is -0.0737.
Turning to RRIRFRPPRLPRPRPRPSYWPRP, the “shrunken log2 fold change” value is -0.519.
RRIRIRPPRLPRPRPRPTSPPRP: the “shrunken log2 fold change” value was found to be 0.118.
Consider RRIRKRPPRLPRPRPRPPEDPRP, for which the “shrunken log2 fold change” value amounted to 3.39.
Turning to RRIRERPPRLPRPRPRPGYDPRP, the “shrunken log2 fold change” value was -0.191.
With RRIRKRPPRLPRPRPRPSKTPRP the figure was 0.0486; with RRIRVRPPRLPRPRPRPSESPRP, 0.0556; with RRIRRRPPRLPRPRPRPDIVPRP, 0.17.
The result for RRIRHRPPRLPRPRPRPGDEPRP reads -0.492; that for RRIRRRPPRLPRPRPRPNWWPRP, 1.05.
Consider RRIRGRPPRLPRPRPRPMMEPRP, for which the “shrunken log2 fold change” value turned out to be 0.372.
RRIRYRPPRLPRPRPRPFHDPRP: the “shrunken log2 fold change” value was -0.195.
The result for RRIRHRPPRLPRPRPRPNHVPRP reads -0.0341.
The result for RRIRFRPPRLPRPRPRPVNIPRP reads -0.16.
With RRIRTRPPRLPRPRPRPYHAPRP the figure was -0.236; with RRIRERPPRLPRPRPRPCTVPRP, -0.0354.
As for RRIRERPPRLPRPRPRPKRWPRP, the “shrunken log2 fold change” value came to 0.35.
The result for RRIRQRPPRLPRPRPRPIRIPRP reads 0.0373; that for RRIRYRPPRLPRPRPRPQPEPRP, 0.239; that for RRIRPRPPRLPRPRPRPYHDPRP, -0.0378.
With RRIRQRPPRLPRPRPRPSGKPRP the figure was -0.147; with RRIRSRPPRLPRPRPRPTSTPRP, -0.236.
Consider RRIRQRPPRLPRPRPRPQSFPRP, for which the “shrunken log2 fold change” value was -0.0179.
On to RRIRDRPPRLPRPRPRPITRPRP, for which the “shrunken log2 fold change” value was 0.0173.
With RRIRNRPPRLPRPRPRPFTIPRP the figure was -0.28.
With RRIRKRPPRLPRPRPRPMFEPRP the figure was 0.312.
For the sequence RRIRIRPPRLPRPRPRPAFPPRP, the “shrunken log2 fold change” value is -0.0288.
With RRIRSRPPRLPRPRPRPQEFPRP the figure was -0.00884.
With RRIRARPPRLPRPRPRPPVDPRP, the “shrunken log2 fold change” value was 0.545.
The result for RRIRCRPPRLPRPRPRPWDVPRP reads 0.0309; that for RRIRIRPPRLPRPRPRPTPPPRP, 0.464.
The result for RRIRHRPPRLPRPRPRPFPCPRP reads -0.0311; that for RRIRSRPPRLPRPRPRPYHSPRP, -0.181.
With RRIRSRPPRLPRPRPRPGVCPRP the figure was 0.562.
For the sequence RRIRNRPPRLPRPRPRPLFSPRP, the “shrunken log2 fold change” value is -0.753.

(Values after the supplement of paper PMC9112550, “Optimization of the antimicrobial peptide Bac7 by deep mutational scanning” (BMC Biology, 2022).)
